Measurements: patent US9598483B2, “Monoclonal antibody binding specifically to DLL4 and use thereof” (ABLBIO, priority 2012, dated 2017)
Entries after “also recorded” stand apart in the source; their conditions may differ.

Tests used:
[1] = test system: human umbilical vein endothelial cell (HUVEC); test: HUVEC proliferation assay on rhDLL4-coated plate (CCK-8); format: cell-based; details: rhDLL4-coated plate 1 μg/ml; MLCK-2 mAb 20 μg/ml; 96 hours
Experimental: In order to investigate the effect of DLL4-binding antibodies on proliferation of human umbilical vein endothelial cell (HUVEC), a representative anti-DLL4 antibody, MLCK-2 antibody, was analyzed for the effect thereof on proliferation of HUVEC.
To be specific, human umbilical vein endothelial cell (HUVEC) was purchased from Lonza to be used in this experiment. T-flask (Nunc) was coated with PBS buffer (Gibco) added with 1% gelatin (Sigma) at a room temperature for 4 to 6 hours, washed with PBS, and then it was used for culturing HUVECs. EBM-2 (Lonza) supplemented with EGM-2 Single Quot (Lonza) was used as a culture medium, density of a cell culture was remained below 80%, and the cells were cultured at 37° C. in a 5% CO2 incubator. The cells before passage 6 were used for this experiment. HUVEC proliferation assay was done by following process. First, to prepare the hDLL4-coated plate, one day before conducting the experiment, rhDLL4 (R&D systems) was diluted in a carbonate buffer to a final concentration of 1 μg/ml in a 96-well plate (BD), where 100 μl of the diluted rhDLL4 was inoculated per each well, and the plate was incubated at 4° C. overnight. […] Using the apparatus SpectraMax 190 (Molecular Devices), the absorption of the sample at 450 nm-650 nm was measured and the levels of cell proliferation were compared among different test groups.

[2] = test system: DLL4/Notch signaling pathway; test: Western blotting of NICD in HUVECs on rhDLL4-coated plate (DLL4/Notch signaling pathway); format: cell-based, human; details: 20 μg/ml MLCK-2 mAb
Description: In Notch signaling, when DLL4 binds to a Notch receptor, this causes a […] change in the Notch receptor leading to the cleavage thereof, and then an intracellular domain of Notch (NICD) enters the nucleus and mediates a Notch signaling. In this regard, it was confirmed whether the anti-DLL4 antibody of the present invention could inhibit the binding between DLL4 and a Notch receptor, thereby disrupting the Notch signaling through monitoring the inhibition of a Notch receptor cleavage as below.
To be specific, in order to determine the inhibitory activity of the DLL4-binding antibodies against the DLL4/Notch signaling pathway, the inhibition of signaling pathway in HUVECs was analyzed in the present experiment. One day before conducting experiment, a recombinant human DLL4 (rhDLL4, R&D systems) was diluted with carbonate buffer to a final concentration of 1 μg/ml, and then 1 ml/well of the diluted rhDLL4 was added to a 6-well plate (BD) and incubated at 4° C. overnight. […]
Subsequently, the plate was put on ice and HUVECs were collected from each well using a scraper and put into a 1.5 ml tube and stored in ice. […] For SDS-PAGE analysis, the supernatant was added to 5×SDS sample buffer and boiled at 100° c. for 10 minutes analyzed by SDS-PAGE. […]

[3] = molecular target: T1, human DLL4-His bound to plate-coated Notch 1-Fc (Homo sapiens, UniProt Q9NR61); test: ELISA-based solution competition (neutralization) test, DLL4 binding to hNotch-1-hFc; details: antibody concentration of 0.1 μM
T1 construct: The DLL4 antigen protein comprises 27th to 522nd amino acid residues of DLL4; purchased R&D System 1506-D4/CF
T1 sequence (Q9NR61 27-522): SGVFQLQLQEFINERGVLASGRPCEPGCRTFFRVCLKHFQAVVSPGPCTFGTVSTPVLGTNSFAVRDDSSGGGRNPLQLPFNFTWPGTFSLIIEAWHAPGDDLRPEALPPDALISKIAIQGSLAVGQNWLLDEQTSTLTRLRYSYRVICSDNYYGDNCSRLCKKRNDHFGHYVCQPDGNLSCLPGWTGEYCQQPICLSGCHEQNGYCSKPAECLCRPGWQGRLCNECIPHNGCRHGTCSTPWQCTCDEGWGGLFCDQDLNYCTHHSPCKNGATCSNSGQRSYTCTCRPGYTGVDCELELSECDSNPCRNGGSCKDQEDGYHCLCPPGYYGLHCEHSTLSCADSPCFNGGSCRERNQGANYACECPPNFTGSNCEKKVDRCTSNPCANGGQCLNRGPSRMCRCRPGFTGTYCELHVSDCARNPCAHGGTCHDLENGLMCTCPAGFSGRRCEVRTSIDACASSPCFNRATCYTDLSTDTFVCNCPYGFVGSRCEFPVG
Experimental: The neutralization effects of the anti-DLL4 antibodies were evaluated using an ELISA-based solution competition test.
Each well of a 96-well microtiter plate (Nunc-Immuno Plate, NUNC, Rochester, N.Y.) was coated with 100 μl of 500 ng/ml of hNotch-1-hFc protein (R&D Systems) (diluted in PBS) at 4° C. overnight, and non-specific binding sites were blocked with BSA for 2 hours.
The anti-DLL4 antibody (purified protein) on the 96-well microtiter plate was premixed with serial dilutions of antigen protein (DLL4 antigen, 600 ng/m) at an antibody concentration ranging from 0 nM to 140 nM. The antigen/antibody mixture was incubated for 30 minutes, and then transferred to a microtiter plate precoated with the DLL4 receptor hNotch-1 protein (50 ng/well) in order to measure free […]. Then, the plate was incubated for 2 hours and washed five times with 0.05% tween 20-containing PBS. In order to detect the DLL4 antigen bound to the plate, an HRP-conjugated His […] polyclonal antibody reagent (Roche applied science) was diluted at a ratio of 1:500, and the washed microtiter plate was treated with the diluted antibody reagent, and then allowed to react at 37° C. for 1 hour. Then, color development was performed using a colorimetric substrate (3,3′,5,5′-tetramethylbenzidine; Sigma-Aldrich Co.), and the enzymatic reaction was stopped using 0.5 mol/l of sulfuric acid. The amounts of antibodies required to achieve a 50% decrease in human DLL4-His bound to plate-coated Notch 1-Fc (IC50) are shown in Table 1 below.

B1: MLCK-2: human monoclonal anti-DLL4 antibody; heavy chain variable region SEQ ID NO: 5, light chain variable region SEQ ID NO: 19 (antibody, V domains shown)
VH: EVQLLESGGGLVQPGGSLRLSCAASGFTFSDYAMSWVRQAPGKGLEWVSWIYSGSGNKYYADSVKGRFTISRDNSKNTLYLQMNSLRAEDTAVYYCARADWPFDYWGQGTLVTVSS
VL: QSVLTQPPSASGTPGQRVTISCTGSSSNIGSNDVTWYQQLPGTAPKLLIYADSKRPSGVPDRFSGSKSGTSASLAISGLRSEDEADYYCGTWDYSLSAYVFGGGTKLTVL
modifications: a heavy chain variable region of MLCK-2; a light chain variable region of MLCK-2
effect on DLL4-mediated inhibition of HUVEC proliferation [1]: blocks the DLL4-mediated suppression of HUVEC proliferation | level of NICD / Notch signaling (western blotting) [2]: reduced the level of NICD; also recorded: inhibits Notch signaling | blocking of the bindings between DLL4 and human Notch 1 receptor [3]: blocked most of the bindings

B2: MLCK-1: human monoclonal anti-DLL4 antibody; heavy chain variable region SEQ ID NO: 1, light chain variable region SEQ ID NO: 15 (antibody, V domains shown)
VH: EVQLLESGGGLVQPGGSLRLSCAASGFTFSDYAMSWVRQAPGKGLEWVSWIYSDDGNKYYADSVKGRFTISRDNSKNTLYLQMNSLRAEDTAVYYCARADPPFDYWGQGTLVTVSS
VL: QSVLTQPPSASGTPGQRVTISCTGSSSNIGSNNVSWYQQLPGTAPKLLIYSDNNRPSGVPDRFSGSKSGTSASLAISGLRSEDEADYYCATWDSSLNGYVFGGGTKLTVL
modifications: a heavy chain variable region of MLCK-1; a light chain variable region of MLCK-1
blocking of the bindings between DLL4 and human Notch 1 receptor [3]: blocked most of the bindings

B3: MLCK-3: human monoclonal anti-DLL4 antibody; heavy chain variable region SEQ ID NO: 8, light chain variable region SEQ ID NO: 23 (antibody, V domains shown)
VH: EVQLLESGGGLVQPGGSLRLSCAASGFTFSDYAMSWVRQAPGKGLEWVSWIYYDSGSKYYADSVKGRFTISRDNSKNTLYLQMNSLRAEDTAVYYCARADLPFDYWGQGTLVTVSS
VL: QSVLTQPPSASGTPGQRVTISCSGSSSNIGNNAVTWYQQLPGTAPKLLIYSDNHRPSGVPDRFSGSKSGTSASLAISGLRSEDEADYYCGTWDASLSGYVFGGGTKLTVL
modifications: a heavy chain variable region of MLCK-3; a light chain variable region of MLCK-3
blocking of the bindings between DLL4 and human Notch 1 receptor [3]: blocked most of the bindings

B4: MLCK-4: human monoclonal anti-DLL4 antibody; heavy chain variable region SEQ ID NO: 11, light chain variable region SEQ ID NO: 27 (antibody, V domains shown)
VH: EVQLLESGGGLVQPGGSLRLSCAASGFTFSNYAMSWVRQAPGKGLEWVSWIYHGGGDTYYADSVKGRFTISRDNSKNTLYLQMNSLRAEDTAVYYCARGPNYTFGKPFDYWGQGTLVTVSS
VL: QSVLTQPPSASGTPGQRVTISCRGSPSNIGNNTVYWYQQLPGTAPKLLIYSDSQRPSGVPDRFSGSKSGTSASLAISGLRSEDEADYYCGSWDYSLSAYVFGGGTKLTVL
modifications: a heavy chain variable region of MLCK-4; a light chain variable region of MLCK-4
blocking of the bindings between DLL4 and human Notch 1 receptor [3]: blocked most of the bindings
